Measured values: patent US20260209365A1, “ANTI-COMMON GAMMA CHAIN PROTEINS AND COMPOSITIONS OF MATTER” (SINOMAB BIOSCIENCE LIMITED, priority 2023, published 2026)
Like-named read-outs stand apart in the source and are kept apart here.

T1: chimpanzee γc protein (extracellular domain), purified (chimpanzee (Pan troglodytes), UniProt P31785 23-262)
T1 construct: also called chimpanzee (Pan troglodytes) γc
T1 sequence: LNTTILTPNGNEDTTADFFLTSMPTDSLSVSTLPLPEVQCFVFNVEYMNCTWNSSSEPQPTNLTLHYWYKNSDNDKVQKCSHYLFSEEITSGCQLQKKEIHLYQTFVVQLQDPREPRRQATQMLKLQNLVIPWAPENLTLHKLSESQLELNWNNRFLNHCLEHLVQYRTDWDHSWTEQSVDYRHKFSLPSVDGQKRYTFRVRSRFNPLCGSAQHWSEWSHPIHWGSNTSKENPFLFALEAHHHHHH

T2: rabbit γc protein (extracellular domain), purified (rabbit (Oryctolagus cuniculus))
T2 construct: also called rabbit (Oryctolagus cuniculus) γc
T2 chain: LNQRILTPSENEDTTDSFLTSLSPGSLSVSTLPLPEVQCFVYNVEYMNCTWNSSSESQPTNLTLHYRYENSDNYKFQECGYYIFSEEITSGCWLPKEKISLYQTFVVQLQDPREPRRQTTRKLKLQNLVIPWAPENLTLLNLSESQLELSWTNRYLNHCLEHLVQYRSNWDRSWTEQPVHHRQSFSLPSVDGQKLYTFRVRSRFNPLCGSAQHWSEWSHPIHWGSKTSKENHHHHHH

T3: Rhesus (Macaca mulatta, UniProt A0A5F8A3G1)
T3 construct: full length, on the cell surface; the purified extracellular domain is 1.m23; also called rhesus γc protein, full length, on HEK-293 cells
T3 sequence (receptor chain): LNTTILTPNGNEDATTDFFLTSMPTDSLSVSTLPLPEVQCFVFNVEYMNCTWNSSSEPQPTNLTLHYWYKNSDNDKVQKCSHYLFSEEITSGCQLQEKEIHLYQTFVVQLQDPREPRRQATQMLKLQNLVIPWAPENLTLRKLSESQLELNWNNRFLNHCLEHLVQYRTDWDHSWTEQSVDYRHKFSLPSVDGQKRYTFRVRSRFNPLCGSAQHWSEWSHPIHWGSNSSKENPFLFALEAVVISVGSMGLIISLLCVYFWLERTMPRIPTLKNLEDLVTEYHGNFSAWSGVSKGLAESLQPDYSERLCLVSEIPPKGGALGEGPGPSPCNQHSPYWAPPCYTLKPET

T4: cynomolgus γc protein (extracellular domain), purified (cynomolgus (Macaca fascicularis), UniProt P31785 23-254 (human entry))
T4 construct: Purchased from Sino Biological or in-house; also called cynomolgus (Macaca fascicularis) γc
T4 chain: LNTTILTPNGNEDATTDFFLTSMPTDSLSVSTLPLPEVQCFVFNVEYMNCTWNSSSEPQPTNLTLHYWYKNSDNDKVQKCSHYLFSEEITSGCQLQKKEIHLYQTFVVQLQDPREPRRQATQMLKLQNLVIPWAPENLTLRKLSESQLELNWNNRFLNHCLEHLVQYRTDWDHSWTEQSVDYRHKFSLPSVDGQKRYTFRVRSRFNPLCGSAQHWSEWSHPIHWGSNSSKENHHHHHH

T5: common marmoset γc protein (extracellular domain), purified (common marmoset (Callithrix jacchus), UniProt P31785 26-262 (human entry))
T5 construct: also called common marmoset (Callithrix jacchus) γc
T5 chain: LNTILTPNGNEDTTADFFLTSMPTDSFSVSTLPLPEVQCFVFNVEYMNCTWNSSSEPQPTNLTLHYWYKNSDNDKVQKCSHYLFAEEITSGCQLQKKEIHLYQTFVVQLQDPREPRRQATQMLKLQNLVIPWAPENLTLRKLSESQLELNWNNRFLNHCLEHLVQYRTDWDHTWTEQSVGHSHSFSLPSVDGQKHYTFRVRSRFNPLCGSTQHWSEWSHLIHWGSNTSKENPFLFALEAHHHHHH

T6: human γc protein (extracellular domain), purified (human (Homo sapiens), UniProt P31785 23-262)
T6 construct: Either purchased from Sino Biological or in-house generated; also called human common gamma chain; CD132; not shown: which was used i
T6 sequence: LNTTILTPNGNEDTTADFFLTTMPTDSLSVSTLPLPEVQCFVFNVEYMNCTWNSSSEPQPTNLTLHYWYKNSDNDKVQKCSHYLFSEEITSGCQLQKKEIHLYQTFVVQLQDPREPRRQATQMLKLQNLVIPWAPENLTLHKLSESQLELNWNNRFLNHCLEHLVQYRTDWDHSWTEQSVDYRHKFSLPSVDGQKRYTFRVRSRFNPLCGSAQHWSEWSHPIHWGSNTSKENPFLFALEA

T7: rhesus γc protein (extracellular domain), purified (rhesus (Macaca mulatta), UniProt P31785 23-254 (human entry))
T7 construct: also called rhesus (Macaca mulatta) γc
T7 chain: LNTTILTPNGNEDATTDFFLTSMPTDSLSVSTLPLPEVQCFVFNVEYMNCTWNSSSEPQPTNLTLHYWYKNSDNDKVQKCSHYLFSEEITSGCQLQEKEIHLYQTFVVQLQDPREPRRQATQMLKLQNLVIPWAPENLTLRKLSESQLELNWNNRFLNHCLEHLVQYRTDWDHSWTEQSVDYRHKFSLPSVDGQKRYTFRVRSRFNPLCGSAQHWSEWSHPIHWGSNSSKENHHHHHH


Experiments:
[1] = target: T1, chimpanzee γc protein (extracellular …); test: ELISA, strip coated with 1 µg/ml chimpanzee γc, antibody in 5-fold dilutions from 10 to 0.00064 µg/ml, OD 450 nm
Experimental: (§1) The ELISA strip was coated with 1 μg/ml γc protein from each species. Antibody was diluted 5-fold each from 10 μg/ml to 0.00064 μg/ml.

[2] = target: T2, rabbit γc protein (extracellular …); test: ELISA, strip coated with 1 µg/ml rabbit γc, antibody in 5-fold dilutions from 10 to 0.00064 µg/ml, OD 450 nm
Experimental: as §1
(§2) Humanized antibodies with back-mutation (hSM-05A and hSM-05E) were tested in the following assays. Binding affinities were investigated in the ELISA assays.

[3] = target: T3, Rhesus; test: flow cytometry, FITC-hSM-05A on HEK-293 cells transfected with full-length rhesus γc, N=3
Experimental: In brief, hSM-05A was fluorescently labelled with FITC. HEK-293 cells were transfected with the plasmids expressing the full-length γc proteins from different species for 2 days before the incubation with the fluorescent antibodies for flow cytometry analyses. […] All antibodies were administrated at 33 nM (5 μg/ml). C=non-transfected control; Hu: Humans; Rh: Rhesus monkey; Cy: Cynomolgus; Ma: Common marmoset. N=3 for all groups.
The binding specificities of humanized anti-γc antibodies to native γc proteins were further evaluated by […] binding assay. In brief, human HEK-293 cells were transfected with plasmid expressing full length γc protein from human, rhesus, cynomolgus or common marmoset. Two days later, transfected cells or non-transfected controls were incubated with FITC-conjugated hSM-05A on ice for an hour before analysis by flow cytometry.

[4] = target: T4, cynomolgus γc protein (extracellular …); test: ELISA, strip coated with 1 µg/ml cynomolgus γc, antibody in 5-fold dilutions from 10 to 0.00064 µg/ml, OD 450 nm; curve near baseline up to about 0.08 µg/ml, rises to about 1.35 at 10 µg/ml, no upper plateau
Experimental: as §1

[5] = target: T5, common marmoset γc protein …; test: ELISA, strip coated with 1 µg/ml common marmoset γc, antibody in 5-fold dilutions from 10 to 0.00064 µg/ml, OD 450 nm
Experimental: as §1, §2

[6] = target: T6, human γc protein (extracellular …); test: ELISA, strip coated with 1 µg/ml human γc, antibody in 5-fold dilutions from 10 to 0.00064 µg/ml, OD 450 nm
Experimental: as §1

[7] = target: T7, rhesus γc protein (extracellular …); test: ELISA, strip coated with 1 µg/ml rhesus γc, antibody in 5-fold dilutions from 10 to 0.00064 µg/ml, OD 450 nm
Experimental: as §1

[8] = target: T7, rhesus γc protein (extracellular …); test: ELISA, strip coated with 1 µg/ml rhesus γc, antibody in 5-fold dilutions from 10 to 0.00064 µg/ml, OD 450 nm; curve near baseline up to about 0.4 µg/ml, rises to about 0.8 at 10 µg/ml, no upper plateau
Experimental: as §1, §2

[9] = target: T6, human γc protein (extracellular …); test: ELISA, strip coated with 1 µg/ml human γc, antibody in 5-fold dilutions from 10 to 0.00064 µg/ml, OD 450 nm; remark: listed apart in the source
Experimental: as §1, §2

[10] = target: T4, cynomolgus γc protein (extracellular …); test: ELISA, strip coated with 1 µg/ml cynomolgus γc, antibody in 5-fold dilutions from 10 to 0.00064 µg/ml, OD 450 nm; curve rises to about 1.6 at 10 µg/ml, no upper plateau
Experimental: as §1, §2

[11] = target: T2, rabbit γc protein (extracellular …); test: ELISA, strip coated with 1 µg/ml rabbit γc, antibody in 5-fold dilutions from 10 to 0.00064 µg/ml, OD 450 nm
Experimental: as §1

Row | EC50 [1] [µg/mL] | binding result [2] | binding result [3] | EC50 [4] [µg/mL] | EC50 [5] [µg/mL] | EC50 [6] [µg/mL] | binding result [7] | EC50 [8] [µg/mL] | EC50 [9] [µg/mL] | EC50 [10] [µg/mL] | binding result [11] | Binder
1 | 0.06 | no binding (tested: 10 µg/ml) | no binding (tested: 5 µg/ml (33 nM)) | 9.56 | 0.04 | 0.02 | no binding (tested: 10 µg/ml) |  |  |  |  | hSM-05A, humanized anti-γc antibody with back-mutation (antibody, V domains shown, Full-length humanized antibody; also called humanized (h) SM-05A; hbSM-05A) VH: QVQLVQSGAEVLKPGASVKVSCKASGYTFTEYTMHWVKQARGQRLEWIGGIDPYNGGATYNQRFKGKATLTTDTSTSTAYMELRNLRSDDTAVYYCARRRLYYGNALDYWGQGTLVTVSS VL: DIVMTQSPLSLPVTPGEQASISCRSSQSLVHSNGNTYLHWYLQKPGQSPQLLIYKVSSRFSGVPDRFSGSGSGTDFTLKISRVEAEDVGVYFCSQTTHVPFTFGSGTKLEIKR
2 | 0.17 |  |  |  | 0.17 |  |  | 6.3 | 0.02 | 5.78 | no binding (tested: 10 µg/ml) | hSM-05E, humanized anti-γc antibody with back-mutation (antibody, V domains shown, Full-length humanized antibody; also called humanized SM-05E; hbSM-05E) VH: QVQLVQSGAEVLKPGASVKVSCKASGYTFTEYTMHWVKQARGQRLEWIGGIDPNTGGVTYNQKFKGKATLTTDTSTSTAYMELRNLRSDDTAVYYCARRRRYYGYALDYWGQGTLVTVSS VL: DIVMTQSPLSLPVTPGEQASISCRSSQSIVHSNGNTYLEWYLQKPGQSPQLLIYKVSNRFSGVPDRFSGSGSGTDFTLKISRVEAEDVGVYFCSQSTHVPFMFGSGTKLEIKR
